According to patent US20040170955A1 (University of Texas, published 2004):
Ends that are not written are not given here.

T1: GST-β5cyto (GST fusion protein of the β5 integrin cytoplasmic domain) (UniProt P18084 743-799)
T1 construct: domain: cytoplasmic domain; Recombinant GST fusion coated on microtiter wells; also called β5-GST; β5 cytoplasmic domain fusion protein; not shown: glutathione S-transferase (GST) fusion partner
T1 sequence (looked up): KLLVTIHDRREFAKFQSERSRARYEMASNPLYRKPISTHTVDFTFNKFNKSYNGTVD

B1: phage displaying CSMMCLEGCDDWC (SEQ ID NO:131) (peptide)
peptide: CSMMCLEGCDDWC
notes: one of the other phage selected in round 2
B2: phage displaying CSGLCTVQCLEGC (SEQ ID NO:130) (peptide)
peptide: CSGLCTVQCLEGC
notes: as for B1
B3: phage displaying CAVACWADCQLGC (SEQ ID NO:129) (peptide)
peptide: CAVACWADCQLGC
notes: as for B1
B4: phage displaying CYNLCIRECESICGADGACWTWCADGCSRSC (SEQ ID NO:125) (peptide)
peptide: CYNLCIRECESICGADGACWTWCADGCSRSC
notes: whole phage tested; also called tandem phage
B5: CPRECESIC (SEQ ID NO:123) soluble cyclic peptide (peptide)
peptide: CPRECESIC
modifications: disulfide (positions not given here); not fully specified; also: disulfide positions not determined, mixture of six MS species, possibly dimers

target: GST-β3cyto (GST fusion protein of the β3 integrin cytoplasmic domain) (UniProt P05106); experiment: phage binding to β3, colonies with Fyn-phosphorylated phage / unphosphorylated phage
Sequence (P05106 742-788): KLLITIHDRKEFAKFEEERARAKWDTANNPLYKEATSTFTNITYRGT

Binder	Phos/Unphos
MLLGYRFEK (not fully specified (residue 5); also: displayed on phage) [Fyn-phosphorylated phage displaying … (SEQ ID NO:117)]	2.5
GGGSYRHVE (not fully specified (residue 5); also: displayed on phage) [Fyn-phosphorylated phage displaying … (SEQ ID NO:115)]	13.2

target: GST-β3cyto (GST fusion protein of the β3 integrin cytoplasmic domain) (UniProt P05106); experiment: phosphorylated phage binding, β3 colonies / BSA colonies

Binder	β3 or β5/BSA
MLLGYRFEK (not fully specified (residue 5); also: displayed on phage) [Fyn-phosphorylated phage displaying … (SEQ ID NO:117)]	2.7
GGGSYRHVE (not fully specified (residue 5); also: displayed on phage) [Fyn-phosphorylated phage displaying … (SEQ ID NO:115)]	5.3

target: GST-β3cyto (GST fusion protein of the β3 integrin cytoplasmic domain) (UniProt P05106); experiment: phage binding, colonies from β3-GST wells / GST wells

Binder	β3/GST Ratio
AGWLYMSWK [phage displaying … (SEQ ID NO:101)]	1.8

target: T2, GST-β3cyto (GST fusion protein of the β3 integrin cytoplasmic domain) (UniProt P05106 742-788); experiment: phage binding, colonies from β3-GST wells / BSA wells
T2 construct: domain: cytoplasmic domain; Recombinant GST fusion coated on microtiter wells; also called β3-GST; β3 cytoplasmic domain fusion protein; not shown: glutathione S-transferase (GST) fusion partner
Description: (§1) β3 and β5 cytoplasmic domain-binding peptides were isolated by screening multiple phage libraries with recombinant GST fusion proteins that contained either GST-β3cyto or GST-β5cyto coated onto microtiter wells. Immobilized GST was used as a negative control for enrichment during the panning of each cytoplasmic domain. Phage were sequenced from randomly selected clones after three rounds of panning as disclosed elsewhere (Koivunen et al., 1995; Pasqualini et al., 1995). […] Randomly selected clones from panning rounds II and III were sequenced. Amino acid sequences of the phagemid encoded peptides were deduced from nucleotide sequences. The ratios were calculated by dividing the number of colonies recovered from β3-GST-coated wells and those recovered from GST or BSA.

T2 sequence (P05106 742-788): as above

Binder	β3/BSA Ratio
YEWWYWSWA (whole phage tested) [phage displaying YEWWYWSWA (SEQ ID NO:98)]	28.1 ratio
CNLSSEQC (cysteine pairing not given here; also: displayed on phage, whole phage tested) [phage displaying CNLSSEQC (SEQ ID NO:103)]	62 ratio
CEQRQTQEGC (cysteine pairing not given here; also: displayed on phage, whole phage tested) [phage displaying CEQRQTQEGC (SEQ ID NO:93)]	14 ratio
SDNRYIGSW (whole phage tested) [phage displaying SDNRYIGSW (SEQ ID NO:97)]	32 ratio
GLDTYRGSP (whole phage tested) [phage displaying GLDTYRGSP (SEQ ID NO:96)]	48 ratio
KVSWYLDNG (whole phage tested) [phage displaying KVSWYLDNG (SEQ ID NO:99)]	20 ratio
SDWYYPWSW (whole phage tested; Selected on β3) [phage displaying SDWYYPWSW (SEQ ID NO:100)]	157 ratio
CARLEVLLPC (cysteine pairing not given here; also: displayed on phage, whole phage tested) [phage displaying CARLEVLLPC (SEQ ID NO:94)]	18.7 ratio
YDWWYPWSW (whole phage tested) [phage displaying YDWWYPWSW (SEQ ID NO:95)]	163 ratio
CFQNRC (cysteine pairing not given here; also: displayed on phage, whole phage tested) [phage displaying CFQNRC (SEQ ID NO:102)]	16 ratio
CLRQSYSYNC (cysteine pairing not given here; also: displayed on phage, whole phage tested) [phage displaying CLRQSYSYNC (SEQ ID NO:104)]	3.2 ratio

target: T1, GST-β5cyto (GST fusion protein of the …); experiment: phage binding, colonies from β5-GST wells / GST wells
Description: as §1

Binder	β5/GST Ratio
CEPYWDGWFC (cysteine pairing not given here; also: displayed on phage, whole phage tested) [phage displaying CEPYWDGWFC (SEQ ID NO:106)]	3.1 ratio
CYIWPDSGLC (cysteine pairing not given here; also: displayed on phage, whole phage tested) [phage displaying CYIWPDSGLC (SEQ ID NO:105)]	5.2 ratio
DEEGYYMMR (whole phage tested) [phage displaying DEEGYYMMR (SEQ ID NO:110)]	11.5 ratio
VVISYSMPD (whole phage tested) [phage displaying VVISYSMPD (SEQ ID NO:112)]	3.8 ratio
SDWYYPWSW (whole phage tested; Selected on β5) [phage displaying SDWYYPWSW (SEQ ID NO:113)]	2.4 ratio
CKEDGWLMTC (whole phage tested) [phage displaying CKEDGWLMTC (SEQ ID NO:107)]	2.3 ratio
KQFSYRYLL (whole phage tested) [phage displaying KQFSYRYLL (SEQ ID NO:111)]	4.5 ratio
CWDQNYLDDC (whole phage tested) [phage displaying CWDQNYLDDC (SEQ ID NO:109)]	1.5 ratio

target: T2, GST-β3cyto (GST fusion protein of the …); experiment: phage binding, colonies from β3-GST wells / GST wells
Description: as §1

Binder	β3/GST Ratio
YEWWYWSWA (whole phage tested) [phage displaying YEWWYWSWA (SEQ ID NO:98)]	2.2 ratio
CNLSSEQC (cysteine pairing not given here; also: displayed on phage, whole phage tested) [phage displaying CNLSSEQC (SEQ ID NO:103)]	2.7 ratio
CEQRQTQEGC (cysteine pairing not given here; also: displayed on phage, whole phage tested) [phage displaying CEQRQTQEGC (SEQ ID NO:93)]	4.3 ratio
SDNRYIGSW (whole phage tested) [phage displaying SDNRYIGSW (SEQ ID NO:97)]	3.3 ratio
GLDTYRGSP (whole phage tested) [phage displaying GLDTYRGSP (SEQ ID NO:96)]	4.1 ratio
KVSWYLDNG (whole phage tested) [phage displaying KVSWYLDNG (SEQ ID NO:99)]	2.1 ratio
SDWYYPWSW (whole phage tested; Selected on β3) [phage displaying SDWYYPWSW (SEQ ID NO:100)]	2.1 ratio
CARLEVLLPC (cysteine pairing not given here; also: displayed on phage, whole phage tested) [phage displaying CARLEVLLPC (SEQ ID NO:94)]	2.8 ratio
YDWWYPWSW (whole phage tested) [phage displaying YDWWYPWSW (SEQ ID NO:95)]	5.6 ratio
CFQNRC (cysteine pairing not given here; also: displayed on phage, whole phage tested) [phage displaying CFQNRC (SEQ ID NO:102)]	3.1 ratio
CLRQSYSYNC (cysteine pairing not given here; also: displayed on phage, whole phage tested) [phage displaying CLRQSYSYNC (SEQ ID NO:104)]	2.4 ratio

target: GST-β5cyto (GST fusion protein of the β5 integrin cytoplasmic domain) (UniProt P18084); experiment: phage binding to β5, colonies with Fyn-phosphorylated phage / unphosphorylated phage

Binder	Phos/Unphos
TMLRYFMFP (not fully specified (residue 5); also: displayed on phage) [Fyn-phosphorylated phage displaying … (SEQ ID NO:119)]	4.2
TMLRYTVRL (not fully specified (residue 5); also: displayed on phage) [Fyn-phosphorylated phage displaying … (SEQ ID NO:118)]	14.3
TLRKYFHSS (not fully specified (residue 5); also: displayed on phage) [Fyn-phosphorylated phage displaying … (SEQ ID NO:120)]	3.8

target: T3, Aminopeptidase A (APA, EC 3.4.11.7) on SK-RC-49/APA cells (UniProt Q07075 1-957, limits assumed); experiment: phage binding to SK-RC-49/APA cells against SK-RC-49 parental cells
T3 construct: whole, on cells
T3 sequence (Q07075 whole entry): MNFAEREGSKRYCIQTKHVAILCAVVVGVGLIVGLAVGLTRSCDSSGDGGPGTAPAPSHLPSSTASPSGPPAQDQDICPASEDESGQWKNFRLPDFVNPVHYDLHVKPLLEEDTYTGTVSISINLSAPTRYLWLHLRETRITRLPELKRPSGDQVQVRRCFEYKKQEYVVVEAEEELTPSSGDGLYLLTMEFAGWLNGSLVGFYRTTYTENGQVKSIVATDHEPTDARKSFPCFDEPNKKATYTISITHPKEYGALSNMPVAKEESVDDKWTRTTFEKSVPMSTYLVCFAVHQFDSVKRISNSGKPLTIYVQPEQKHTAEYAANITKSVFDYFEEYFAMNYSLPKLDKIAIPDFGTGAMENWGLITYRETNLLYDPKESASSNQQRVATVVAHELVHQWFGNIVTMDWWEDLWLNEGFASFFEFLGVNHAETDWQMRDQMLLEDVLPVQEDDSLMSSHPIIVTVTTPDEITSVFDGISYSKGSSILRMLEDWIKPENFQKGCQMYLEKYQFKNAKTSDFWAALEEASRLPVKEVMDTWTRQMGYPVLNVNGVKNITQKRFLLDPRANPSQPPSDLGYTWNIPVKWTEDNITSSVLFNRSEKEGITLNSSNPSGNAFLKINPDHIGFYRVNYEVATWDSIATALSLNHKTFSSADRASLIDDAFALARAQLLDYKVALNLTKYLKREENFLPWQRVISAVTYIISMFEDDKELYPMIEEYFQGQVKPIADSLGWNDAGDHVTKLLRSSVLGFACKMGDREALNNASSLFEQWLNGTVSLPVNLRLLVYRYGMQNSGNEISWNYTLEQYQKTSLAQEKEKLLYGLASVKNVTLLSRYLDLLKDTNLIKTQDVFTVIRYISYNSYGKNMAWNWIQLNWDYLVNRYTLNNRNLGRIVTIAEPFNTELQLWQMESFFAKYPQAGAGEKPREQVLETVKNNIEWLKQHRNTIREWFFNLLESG

Binder	binding result
B1	no binding
B2	no binding
B3	no binding
CGTGCAVECEVVC (whole phage tested) [phage displaying CGTGCAVECEVVC (SEQ ID NO:128)]	no binding

target: T3, Aminopeptidase A (APA, EC 3.4.11.7) on …; experiment: phage binding to SK-RC-49/APA cells against parental cells (not shown)

Binder	fold enrichment relative to SK-RC-49 parental cells
B4	6 fold
CLGQCASICVNDC (whole phage tested) [phage displaying CLGQCASICVNDC (SEQ ID NO:126)]	6 fold
CPKVCPRECESNC (whole phage tested) [phage displaying CPKVCPRECESNC (SEQ ID NO:127)]	6 fold

target: GST-β5cyto (GST fusion protein of the β5 integrin cytoplasmic domain) (UniProt P18084); experiment: phage binding, colonies from β5-GST wells / GST wells

Binder	β5/GST Ratio
CKLWQEDGY [phage displaying … (SEQ ID NO:108)]	1.8
DWFSYYEL [phage displaying DWFSYYEL (SEQ ID NO:114)]	1.7

target: GST-β3cyto (GST fusion protein of the β3 integrin cytoplasmic domain) (UniProt P05106); experiment: phosphorylated phage binding, β3 colonies / GST colonies

Binder	β3 or β5/GST
MLLGYRFEK (not fully specified (residue 5); also: displayed on phage) [Fyn-phosphorylated phage displaying … (SEQ ID NO:117)]	3.5
GGGSYRHVE (not fully specified (residue 5); also: displayed on phage) [Fyn-phosphorylated phage displaying … (SEQ ID NO:115)]	1.5

target: GST-β3cyto (GST fusion protein of the β3 integrin cytoplasmic domain) (UniProt P05106); experiment: phage binding, colonies from β3-GST wells / BSA wells

Binder	β3/BSA Ratio
AGWLYMSWK [phage displaying … (SEQ ID NO:101)]	2.4

target: GST-β5cyto (GST fusion protein of the β5 integrin cytoplasmic domain) (UniProt P18084); experiment: phosphorylated phage binding, β5 colonies / BSA colonies

Binder	β3 or β5/BSA
TMLRYFMFP (not fully specified (residue 5); also: displayed on phage) [Fyn-phosphorylated phage displaying … (SEQ ID NO:119)]	3.8
TMLRYTVRL (not fully specified (residue 5); also: displayed on phage) [Fyn-phosphorylated phage displaying … (SEQ ID NO:118)]	2.2
TLRKYFHSS (not fully specified (residue 5); also: displayed on phage) [Fyn-phosphorylated phage displaying … (SEQ ID NO:120)]	15.2

target: T3, Aminopeptidase A (APA, EC 3.4.11.7) on …; experiment: cell-based or functional assay

Binder	IC50 for APA enzyme inhibition (α-glutamyl-p-nitroanilide, colorimetric, SK-RC49/APA cells)
B5	800 µM

target: GST-β5cyto (GST fusion protein of the β5 integrin cytoplasmic domain) (UniProt P18084); experiment: phosphorylated phage binding, β5 colonies / GST colonies

Binder	β3 or β5/GST
TMLRYFMFP (not fully specified (residue 5); also: displayed on phage) [Fyn-phosphorylated phage displaying … (SEQ ID NO:119)]	2.3
TMLRYTVRL (not fully specified (residue 5); also: displayed on phage) [Fyn-phosphorylated phage displaying … (SEQ ID NO:118)]	3.4
TLRKYFHSS (not fully specified (residue 5); also: displayed on phage) [Fyn-phosphorylated phage displaying … (SEQ ID NO:120)]	3.8

target: GST-β5cyto (GST fusion protein of the β5 integrin cytoplasmic domain) (UniProt P18084); experiment: phage binding, colonies from β5-GST wells / BSA wells

Binder	β5/BSA Ratio
CKLWQEDGY [phage displaying … (SEQ ID NO:108)]	665
DWFSYYEL [phage displaying DWFSYYEL (SEQ ID NO:114)]	153

target: T1, GST-β5cyto (GST fusion protein of the …); experiment: as above
Description: as §1

Binder	β5/BSA Ratio
CEPYWDGWFC (cysteine pairing not given here; also: displayed on phage, whole phage tested) [phage displaying CEPYWDGWFC (SEQ ID NO:106)]	400 ratio
CYIWPDSGLC (cysteine pairing not given here; also: displayed on phage, whole phage tested) [phage displaying CYIWPDSGLC (SEQ ID NO:105)]	193 ratio
DEEGYYMMR (whole phage tested) [phage displaying DEEGYYMMR (SEQ ID NO:110)]	29 ratio
VVISYSMPD (whole phage tested) [phage displaying VVISYSMPD (SEQ ID NO:112)]	28 ratio
SDWYYPWSW (whole phage tested; Selected on β5) [phage displaying SDWYYPWSW (SEQ ID NO:113)]	304 ratio
CKEDGWLMTC (whole phage tested) [phage displaying CKEDGWLMTC (SEQ ID NO:107)]	836 ratio
KQFSYRYLL (whole phage tested) [phage displaying KQFSYRYLL (SEQ ID NO:111)]	8 ratio
CWDQNYLDDC (whole phage tested) [phage displaying CWDQNYLDDC (SEQ ID NO:109)]	100 ratio
